Tests used:
[1] = system: HeLa Kyoto; assay: solubility change mitosis vs G1/S (difference of NP-40 vs SDS log2 ratios) (log2 ratio difference); higher = more soluble in mitosis
[2] = system: HeLa Kyoto; assay: solubility in G1/S (NP-40 vs SDS abundance) (log2 ratio); higher = more soluble; conditions: cell cycle stage: G1/S
[3] = system: HeLa Kyoto; assay: melting temperature (median over replicates), in situ; higher = more thermally stable
[4] = system: HeLa Kyoto; assay: thermal stability score vs G1/S (z-score of summed log2 fold changes over temperatures); higher = more thermally stable than in G1/S
[5] = cell cycle stage: early G1 (4.5 h after nocodazole release)
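For melting temperature (median over replicates), in situ in this document: HeLa Kyoto cells synchronized by double thymidine or nocodazole block, proteins quantified by TMT10plex mass spectrometry, three independent biological replicates.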
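For solubility change mitosis vs G1/S (difference of NP-40 vs SDS log2 ratios) in this document: synchronized HeLa Kyoto cells (double thymidine block for G1/S, nocodazole release for mitosis), protein amounts in NP-40 versus SDS lysates quantified by mass spectrometry, three biological replicates.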
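For solubility in G1/S (NP-40 vs SDS abundance) in this document: HeLa Kyoto cells arrested at G1/S by double thymidine block, proteins quantified by TMT10plex mass spectrometry in mild NP-40 versus SDS extracts, three biological replicates.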
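For thermal stability score vs G1/S (z-score of summed log2 fold changes over temperatures) in this document: synchronized HeLa Kyoto cells, proteins quantified by TMT10plex mass spectrometry, three biological replicates, mitosis taken 0.5 h after nocodazole release, G1/S directly after double thymidine block.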

Chain of ZNF787 (chain, as listed by the source): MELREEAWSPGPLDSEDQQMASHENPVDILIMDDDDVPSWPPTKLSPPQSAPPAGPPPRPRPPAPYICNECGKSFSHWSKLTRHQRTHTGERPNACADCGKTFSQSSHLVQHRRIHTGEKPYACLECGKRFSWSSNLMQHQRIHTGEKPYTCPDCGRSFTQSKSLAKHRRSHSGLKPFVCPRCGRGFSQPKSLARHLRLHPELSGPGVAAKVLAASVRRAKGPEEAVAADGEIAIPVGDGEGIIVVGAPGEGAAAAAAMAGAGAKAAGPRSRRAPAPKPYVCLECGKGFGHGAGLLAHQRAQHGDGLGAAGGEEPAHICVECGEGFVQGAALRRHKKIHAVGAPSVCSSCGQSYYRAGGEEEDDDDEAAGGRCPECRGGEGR
Chain of CDC42 (chain, as listed by the source): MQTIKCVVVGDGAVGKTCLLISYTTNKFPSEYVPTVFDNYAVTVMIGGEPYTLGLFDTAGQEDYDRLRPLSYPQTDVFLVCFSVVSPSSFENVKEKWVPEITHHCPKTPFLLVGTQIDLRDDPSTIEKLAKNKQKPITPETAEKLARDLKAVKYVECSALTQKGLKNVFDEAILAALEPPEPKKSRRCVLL

Row | Substance | solubility change mitosis (log2) [1] | solubility in G1/S (log2) [2] | melting temperature ([3]; cell cycle stage: G1/S) | melting temperature ([3]; cell cycle stage: mitosis) | thermal stability score [4, 5] | thermal stability score ([4]; cell cycle stage: mitosis)
1 | MMSDASDMLAAALEQMDGIIAGSKALEYSNGIFDCQSPTSPFMGSLRALHLVEDLRGLLEMMETDEKEGLRCQIPDSTAETLVEWLQSQMTNGHLPGNGDVYQERLARLENDKESLVLQVSVLTDQVEAQGEKIRDLEFCLEEHREKVNATEEMLQQELLSRTSLETQKLDLMAEISNLKLKLTAVEKDRLDYEDKFRDTEGLIQEINDLRLKVSEMDSERLQYEKKLKSTKSLMAKLSSMKIKVGQMQYEKQRMEQKWESLKDELASLKEQLEEKESEVKRLQEKLVCKMKGEGVEIVDRDIEVQKMKKAVESLMAANEEKDRKIEDLRQCLNRYKKMQDTVVLAQGKDGEYEELLNSSSISSLLDAQGFSDLEKSPSPTPVMGSPSCDPFNTSVPEEFHTTILQVSIPSLLPATVSMETSEKSKLTPKPETSFEENDGNIILGATVDTQLCDKLLTSSLQKSSSLGNLKKETSDGEKETIQKTSEDRAPAESRPFGTLPPRPPGQDTSMDDNPFGTRKVRSSFGRGFFKIKSNKRTASAPNLAETEKETAEHLDLAGASSRPKDSQRNSPFQIPPPSPDSKKKSRGIMKLFGKLRRSQSTTFNPDDMSEPEFKRGGTRATAGPRLGWSRDLGQSNSDLDMPFAKWTKEQVCNWLMEQGLGSYLNSGKHWIASGQTLLQASQQDLEKELGIKHSLHRKKLQLALQALGSEEETNHGKLDFNWVTRWLDDIGLPQYKTQFDEGRVDGRMLHYMTVDDLLSLKVVSVLHHLSIKRAIQVLRINNFEPNCLRRRPSDENTIAPSEVQKWTNHRVMEWLRSVDLAEYAPNLRGSGVHGGLMVLEPRFNVETMAQLLNIPPNKTLLRRHLATHFNLLIGAEAQHQKRDAMELPDYVLLTATAKVKPKKLAFSNFGNLRKKKQEDGEEYVCPMELGQASGSASKKGFKPGLDMRLYEEDDLDRLEQMEDSEGTVRQIGAFSEGINNLTHMLKEDDMFKDFAARSPSASITDEDSNV [PPFIBP1] | -0.0985 | 0.425 | 49.4 °C | 49 °C | 0.0729 | 0.352
2 | MDPSLLRERELFKKRALSTPVVEKRSASSESSSSSSKKKKTKVEHGGSSGSKQNSDHSNGSFNLKALSGSSGYKFGVLAKIVNYMKTRHQRGDTHPLTLDEILDETQHLDIGLKQKQWLMTEALVNNPKIEVIDGKYAFKPKYNVRDKKALLRLLDQHDQRGLGGILLEDIEEALPNSQKAVKALGDQILFVNRPDKKKILFFNDKSCQFSVDEEFQKLWRSVTVDSMDEEKIEEYLKRQGISSMQESGPKKVAPIQRRKKPASQKKRRFKTHNEHLAGVLKDYSDITSSK [GTF2E2] | 0.135 | 0.797 | 48.9 °C | 50.2 °C | 1.36 | 3.1
3 | MSWLSSSQGVVLTAYHPSGKDQTVGNSHAKAGEEATSSRRYGQYTMNQESTTIKVMEKPPFDRSISQDSLDELSMEDYWIELENIKKSSENSQEDQEVVVVKEPDEGELEEEWLKEAGLSNLFGESAGDPQESIVFLSTLTRTQAAAVQKRVETVSQTLRKKNKQYQIPDVRDIFAQQRESKETAPGGTESQSLRTNENKYQGRDDEASNLVGEEKLIPPEETPAPETDINLEVSFAEQALNQKESSKEKIQKSKGDDATLPSFRLPKDKTGTTRIGDLAPQDMKKVCHLALIELTALYDVLGIELKQQKAVKIKTKDSGLFCVPLTALLEQDQRKVPGMRIPLIFQKLISRIEERGLETEGLLRIPGAAIRIKNLCQELEAKFYEGTFNWESVKQHDAASLLKLFIRELPQPLLSVEYLKAFQAVQNLPTKKQQLQALNLLVILLPDANRDTLKALLEFLQRVIDNKEKNKMTVMNVAMVMAPNLFMCHALGLKSSEQREFVMAAGTANTMHLLIKYQKLLWTIPKFIVNQVRKQNTENHKKDKRAMKKLLKKMAYDREKYEKQDKSTNDADVPQGVIRVQAPHLSKVSMAIQLTEELKASDVLARFLSQESGVAQTLKKGEVFLYEIGGNIGERCLDDDTYMKDLYQLNPNAEWVIKSKPL [ARHGAP18] | -0.128 | 0.188 | 50 °C | 50 °C | 0.338 | 0.693
4 | ZNF787 | 0.398 | -0.0171 | 51.9 °C | 54.5 °C | -0.71 | -1.22
5 | ARFGEF2 | -0.155 | -0.186 | 50.7 °C | 50.5 °C | 0.0515 | -0.274
6 | TARBP1 | -0.207 | -0.262 | 52.3 °C | 51.6 °C | 0.335 | -0.385
7 | MIIYRDLISHDEMFSDIYKIREIADGLCLEVEGKMVSRTEGNIDDSLIGGNASAEGPEGEGTESTVITGVDIVMNHHLQETSFTKEAYKKYIKDYMKSIKGKLEEQRPERVKPFMTGAAEQIKHILANFKNYQFFIGENMNPDGMVALLDYREDGVTPYMIFFKDGLEMEKC [TPT1] | -0.0912 | 0.476 | 53.5 °C | 52.9 °C | 0.357 | 0.0736
8 | MSKPELKEDKMLEVHFVGDDDVLNHILDREGGAKLKKERAQLLVNPKKIIKKPEYDLEEDDQEVLKDQNYVEIMGRDVQESLKNGSATGGGNKVYSFQNRKHSEKMAKLASELAKTPQKSVSFSLKNDPEITINVPQSSKGHSASDKVQPKNNDKSEFLSTAPRSLRKRLIVPRSHSDSESEYSASNSEDDEGVAQEHEEDTNAVIFSQKIQAQNRVVSAPVGKETPSKRMKRDKTSDLVEEYFEAHSSSKVLTSDRTLQKLKRAKLDQQTLRNLLSKVSPSFSAELKQLNQQYEKLFHKWMLQLHLGFNIVLYGLGSKRDLLERFRTTMLQDSIHVVINGFFPGISVKSVLNSITEEVLDHMGTFRSILDQLDWIVNKFKEDSSLELFLLIHNLDSQMLRGEKSQQIIGQLSSLHNIYLIASIDHLNAPLMWDHAKQSLFNWLWYETTTYSPYTEETSYENSLLVKQSGSLPLSSLTHVLRSLTPNARGIFRLLIKYQLDNQDNPSYIGLSFQDFYQQCREAFLVNSDLTLRAQLTEFRDHKLIRTKKGTDGVEYLLIPVDNGTLTDFLEKEEEEA [ORC2] | 0.06 | 0.117 | 48.1 °C | 49.2 °C | 1.23 | 1.67
9 | MSAAIAALAASYGSGSGSESDSDSESSRCPLPAADSLMHLTKSPSSKPSLAVAVDSAPEVAVKEDLETGVHLDPAVKEVQYNPTYETMFAPEFGPENPFRTQQMAAPRNMLSGYAEPAHINDFMFEQQRRTFATYGYALDPSLDNHQVSAKYIGSVEEAEKNQGLTVFETGQKKTEKRKKFKENDASNIDGFLGPWAKYVDEKDVAKPSEEEQKELDEITAKRQKKGKQEEEKPGEEKTILHVKEMYDYQGRSYLHIPQDVGVNLRSTMPPEKCYLPKKQIHVWSGHTKGVSAVRLFPLSGHLLLSCSMDCKIKLWEVYGERRCLRTFIGHSKAVRDICFNTAGTQFLSAAYDRYLKLWDTETGQCISRFTNRKVPYCVKFNPDEDKQNLFVAGMSDKKIVQWDIRSGEIVQEYDRHLGAVNTIVFVDENRRFVSTSDDKSLRVWEWDIPVDFKYIAEPSMHSMPAVTLSPNGKWLACQSMDNQILIFGAQNRFRLNKKKIFKGHMVAGYACQVDFSPDMSYVISGDGNGKLNIWDWKTTKLYSRFKAHDKVCIGAVWHPHETSKVITCGWDGLIKLWD [CDC40] | 0.525 | -0.918 | 53.1 °C | 51.9 °C | -1 | -0.655
10 | CDC42 | -0.0727 | 0.629 | 60.1 °C | 59.8 °C | -1.73 | 1.82
11 | MAASAKRKQEEKHLKMLRDMTGLPHNRKCFDCDQRGPTYVNMTVGSFVCTSCSGSLRGLNPPHRVKSISMTTFTQQEIEFLQKHGNEVCKQIWLGLFDDRSSAIPDFRDPQKVKEFLQEKYEKKRWYVPPEQAKVVASVHASISGSSASSTSSTPEVKPLKSLLGDSAPTLHLNKGTPSQSPVVGRSQGQQQEKKQFDLLSDLGSDIFAAPAPQSTATANFANFAHFNSHAAQNSANADFANFDAFGQSSGSSNFGGFPTASHSPFQPQTTGGSAASVNANFAHFDNFPKSSSADFGTFNTSQSHQTASAVSKVSTNKAGLQTADKYAALANLDNIFSAGQGGDQGSGFGTTGKAPVGSVVSVPSQSSASSDKYAALAELDSVFSSAATSSNAYTSTSNASSNVFGTVPVVASAQTQPASSSVPAPFGATPSTNPFVAAAGPSVASSTNPFQTNARGATAATFGTASMSMPTGFGTPAPYSLPTSFSGSFQQPAFPAQAAFPQQTAFSQQPNGAGFAAFGQTKPVVTPFGQVAAAGVSSNPFMTGAPTGQFPTGSSSTNPFL [AGFG1] | -0.0484 | 0.0305 | 50.9 °C | 52.1 °C | 0.14 | -0.191
12 | MGRVQLFEISLSHGRVVYSPGEPLAGTVRVRLGAPLPFRAIRVTCIGSCGVSNKANDTAWVVEEGYFNSSLSLADKGSLPAGEHSFPFQFLLPATAPTSFEGPFGKIVHQVRAAIHTPRFSKDHKCSLVFYILSPLNLNSIPDIEQPNVASATKKFSYKLVKTGSVVLTASTDLRGYVVGQALQLHADVENQSGKDTSPVVASLLQKVSYKAKRWIHDVRTIAEVEGAGVKAWRRAQWHEQILVPALPQSALPGCSLIHIDYYLQVSLKAPEATVTLPVFIGNIAVNHAPVSPRPGLGLPPGAPPLVVPSAPPQEEAEAEAAAGGPHFLDPVFLSTKSHSQRQPLLATLSSVPGAPEPCPQDGSPASHPLHPPLCISTGATVPYFAEGSGGPVPTTSTLILPPEYSSWGYPYEAPPSYEQSCGGVEPSLTPES [ARRDC1] | -0.0855 | 0.131 | 53.2 °C | 52.1 °C | -1.09 | -1.63
13 | CARKD | -0.211 | 0.243 | 54.8 °C | 56.1 °C | -0.234 | -1.33
14 | MFISLWEFFYGHFFRFWMKWLLRQMTGKCELQRIFDTYVGAQRTHRIENSLTYSKNKVLQKATHVVQSEVDKYVDDIMKEKNINPEKDASFKICMKMCLLQITGYKQLYLDVESVRKRPYDSDNLQHEELLMKLWNLLMPTKKLNARISKQWAEIGFQGDDPKTDFRGMGILGLINLVYFSENYTSEAHQILSRSNHPKLGYSYAIVGINLTEMAYSLLKSEALKFHLYNLVPGIPTMEHFHQFYCYLVYEFDKFWFEEEPESIMYFNLYREKFHEKIKGLLLDCNVALTLKV [ELMOD2] | -0.25 | -0.348 | 51.5 °C | 51.3 °C | -0.373 | -0.0202
15 | MASMAAAIAASRSAVMSGNRPLDDRERKRFTYFSSLSPMARKIMQDKEKIREKYGPEWARLPPAQQDEIIDRCLVGPRAPAPRDPGDSEELTRFPGLRGPTGQKVVRFGDEDLTWQDEHSAPFSWETKSQMEFSISALSIQEPSNGTAASEPRPLSKASQGSQALKSSQGSRSSSLDALGPTRKEEEASFWKINAERSRGEGPEAEFQSLTPSQIKSMEKGEKVLPPCYRQEPAPKDREAKVERPSTLRQEQRPLPNVSTERERPQPVQAFSSALHEAAPSQLEGKLPSPDVRQDDGEDTLFSEPKFAQVSSSNVVLKTGFDFLDNW [C1ORF198] | 0.253 | -0.228 | 51.6 °C | 53.2 °C | -0.542 | -1
16 | LAMA1 | 0.051 | -0.219 | 51.7 °C | 52.9 °C | 5.02 | 10
17 | NIFK | 0.784 | -1.88 | 51.7 °C | 52.8 °C | 4.37 | 4.42
